Reference: the supplement of paper PMC10567573
± gives the standard deviation.

Test: protein stability index of a GFP-peptide fusion (GPS, HEK-293T) (PSI 1-6); higher = more stable
[1] = treatment: DMSO, c terminus: a fixed tail appended
[2] = treatment: MLN4924 1 uM, 8 h, c terminus: a fixed tail appended
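Further: 24-mer peptide tiles fused after GFP, lentivirally expressed, FACS-sorted into six equal bins by GFP/DsRed ratio, decoded by Illumina sequencing, PSI is the read-weighted mean bin number.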

Sequence	protein stability index [1]	protein stability index [2]	protein stability index (treatment: DMSO, c terminus: native)	protein stability index (treatment: MLN4924 1 uM, 8 h, c terminus: native)
VIVPKEEGVISVSEDRTVRVWLKR [WDFY2]	2.78 ± 0.32	3.17 ± 0.2		
VKRKMDGREYPDAQGFAADVRLMF [BRD3]	2.44 ± 0.043	2.58 ± 0.18		
VLCLLAADEDDDRDVALQIHFTLI [GADD45A]	3.49 ± 2.2	2.15 ± 1		
VLEENGEKNQVQLGKLEATIKSLS [SASS6]	3.98 ± 0.43	3.79 ± 0.16		
VLRVEQQPHLPLLSTLAGIRVMVH [SCNN1D]	2.31 ± 0.25	2.26 ± 0.082		
VMSALWVSGLDSSYLREQMLNEPL [GAN]	2.83 ± 0.24	2.29 ± 0.54		
VMVRWNKSLEWSPWNCILLTKDEA [IQUB]	2.57 ± 1	2.25 ± 0.35		
VNDKRRKKSGEKEQHISKCKKAFR [KMT2E]	3.76 ± 0.14	3.86 ± 0.27		
VPDREEGGSGGGGGGDEDGSLGSR [SMAD6]	5.59 ± 0.24	5.33 ± 0.3		
VPEEEQAANKGEEKKDDENIPMET [SMARCE1]	5.63 ± 0.19	5.68 ± 0.27		
VPLARSLQISEELLSRNQLSTAAS [LCOR]	3.67 ± 0.097	3.73 ± 0.076		
VPTVSRPYSFIEFDTFIQKTKKLY [SEC22B]	2.3 ± 0.34	2.47 ± 0.17		
VQEVMEEEWNALQSVENCPEDLAQ [RPAIN]	5.51 ± 0.21	5.48 ± 0.089		
VQKDHENYMKILLKVGGILVMPIE [PCMTD1]	2.88 ± 0.67	2.16 ± 0.48		
VQNGTYLQRVLQNCPWPMSCPGSS [EMID1]	2.12 ± 0.36	3.17 ± 1.1		
VRILLRRGVDVSLQGKDAWLPLHY [RIPK4]	2.99 ± 1.7	2.29 ± 0.44		
VRMSADAMLKALLGSKHKVCMDLR [TNNI2]	2.25 ± 0.45	2.1 ± 0.3		
VRRSSRKSKAELQSEERKRIDELI [KMT5A]	4.62 ± 0.48	4.51 ± 0.39		
VSFLRSGTKLIFRRRPRQKEAGLS [C2CD2L]	2.75 ± 0.74	3.1 ± 0.24		
VSGCPEDLTVGRAPTADDDDDDHD [NOL4L]	5.62 ± 0.31	5.63 ± 0.28		
VSGKCEPIGCDGVLFSTHTLDKCG [ADAMTSL2]	3.41 ± 0.4	3.35 ± 0.29		

Sequence	protein stability index [1]	protein stability index [2]	protein stability index (treatment: DMSO, c terminus: native)	protein stability index (treatment: MLN4924 1 uM, 8 h, c terminus: native)
VSPIQIDGAGRTWQDSDTVKLLVD [TOR1AIP2]	3.92 ± 0.11	3.75 ± 0.32		
VTETEETQEKKAESKEPIEEEPTG [SDE2]	5.68 ± 0.19	5.85 ± 0.11		
VTHREGAPPLPGAESFPGSQVMGS [PLEKHN1]	4.63 ± 0.14	4.51 ± 0.11		
VTLQCLAARALDKNKIPYKGFIPE [FEM1A]	2.69 ± 0.27	2.67 ± 0.28		
VVAAVGKELIIFRLVAPTEGSLEW [WDR41]	2.3 ± 0.21	2.37 ± 0.28		
VVDRIQSSGKNVTLLVCGKKAYDY [PDZK1]	2.42 ± 0.5	2.54 ± 0.31		
VVEEAKCCCFFKRKRKKTAQRHK [CSNK1G1]			4.18 ± 0.33	4.69 ± 0.42
VVGFDLELGQAVEVIYPQHSKLTD [DENND6A]	2.03 ± 0.097	2.62 ± 0.3		
VVKEEISDDNAKLPCFNGRVVSWL [DVL3]	2.94 ± 0.29	3.19 ± 0.19		
VVPPTPPVVKKKGVKRKADTTTPT [BRD3]	4.9 ± 0.39	4.82 ± 0.31		
WGPSGQLMGEIAKATFMYEQFPEL [CLINT1]	1.97 ± 0.38	2.06 ± 0.23		
WLPESDCETVTCCLFSERDAAGAP [SMAD6]	3.72 ± 0.58	3.96 ± 0.27		
WMQANYDPLSDSDSMTSQAKPEAL [ELOA2]	4.72 ± 0.12	4.54 ± 0.26		
WPRNPPSRLLGAAAGQRSRPSTYY [DNAJC4]	3.24 ± 0.25	3.67 ± 0.4		
WVEQAYADKCVCGPSAPPAPTPPS [TIAF1]	3.9 ± 0.17	3.9 ± 0.3		
YANAVLQALSNVPPLRNYFLEEDN [USP39]	2.19 ± 0.072	2.12 ± 0.24		
YCAKLCEPQWFYEETESSDDVEVL [C8orf76]	2.98 ± 0.67	3.6 ± 0.79		
YDQLKAFLCGRALTSDLYAPMVAG [SLC25A39]	2.61 ± 0.2	2.04 ± 0.15		
YDYLRKLFTDLFDRKGYMFDYEYD [CSNK1G3]	2.11 ± 0.76	2 ± 0.3		
YEDGEVEEEADSCFGDDEDDSGTE [CDC34]	5.61 ± 0.16	5.67 ± 0.12		
YEFQIPYICPDYQSYFKTIEDFQQ [KRT36]	2.28 ± 0.3	2.07 ± 0.3		

Sequence	protein stability index [1]	protein stability index [2]	protein stability index (treatment: DMSO, c terminus: native)	protein stability index (treatment: MLN4924 1 uM, 8 h, c terminus: native)
YEHHYHTLHGNVCSFCKRAFPSGH [ZNF511]	2.73 ± 0.37	3.19 ± 0.54		
YERTLGQYQYERYGAVELSGAGRR [IRX6]	3.75 ± 0.36	3.81 ± 0.3		
YFQSVTSNRWLMVKIFLILIVFFI [STX5]	2.85 ± 0.6	2.93 ± 0.49		
YGETCFPKGRFERKRNPSRKKQHI [ZNF24]	2.93 ± 0.62	3.24 ± 0.6		
YGMQTQNYPKGGLLDSMCPASTPS [ETS2]	3.79 ± 0.19	3.64 ± 0.18		
YKENFLKRFQLTKLPPYLIFCIKR [USP39]	3.02 ± 0.77	2.82 ± 0.43		
YKPEQPLVRLRGGAYIGEGRVEVL [LOXL2]	3.12 ± 0.16	2.97 ± 0.47		
YKSVLQAVQKTDEGHPFKAYLELE [RTN1]	3.43 ± 0.12	3.54 ± 0.21		
YLPRDFSTYRPLPDPSVWSRRYTE [MYORG]	2.64 ± 0.17	2.82 ± 0.29		
YNPDLKKVVEAHKIVLCAVSHVFM [RHOBTB3]	2.95 ± 0.57	2.97 ± 0.26		
YPIYVIPEPPPVSFQPYHPLHFRG [TENT5D]	2.35 ± 0.28	2.32 ± 0.37		
YPPFWDEDQHRLYQQIKAGAYDFP [CAMK2D]	2.56 ± 0.21	2.64 ± 0.25		
YQASAMMVESRYALLIVDSATALY [RAD51]	2.94 ± 0.47	2.89 ± 0.41		
YQYLHYALFKANRLEKAVAAAYTF [P3H4]	2.22 ± 0.17	2.55 ± 0.25		
YRQKLLMFLEISSYYDPGRLICDF [VPS39]	2.92 ± 0.55	2.7 ± 0.56		
YRVSDVTKAGHSLELIEPLIKFQV [VDR]	1.99 ± 0.4	2.12 ± 0.21		
YSLELGKAIKQKLWEALCSQGAIS [C22orf31]	2.4 ± 0.45	2.63 ± 0.29		
YSNTKENGINGELTSADRETAEEV [MAP2]	5.47 ± 0.13	5.44 ± 0.24		
YYPTSSSTSFMSSSSSSSSWLTRR [EMD]	3.23 ± 0.19	3.29 ± 0.39		
